{"source": "paper PMC5089669", "about": "“Biocatalytic Properties and Structural Analysis of Eugenol Oxidase from Rhodococcus jostii RHA1: A Versatile Oxidative Biocatalyst” (Chembiochem, 2016)", "proteins": {"B1": {"name": "Eugenol oxidase (EUGO) from Rhodococcus jostii RHA1 (enzyme, UniProt Q0SBK1 1-526, looked up)", "chain": "MTRTLPPGVSDERFDAALQRFRDVVGDKWVLSTADELEAFRDPYPVGAAEANLPSAVVSPESTEQVQDIVRIANEYGIPLSPVSTGKNNGYGGAAPRLSGSVIVKTGERMNRILEVNEKYGYALLEPGVTYFDLYEYLQSHDSGLMLDCPDLGWGSVVGNTLDRGVGYTPYGDHFMWQTGLEVVLPQGEVMRTGMGALPGSDAWQLFPYGFGPFPDGMFTQSNLGIVTKMGIALMQRPPASQSFLITFDKEEDLEQIVDIMLPLRINMAPLQNVPVLRNIFMDAAAVSKRTEWFDGDGPMPAEAIERMKKDLDLGFWNFYGTLYGPPPLIEMYYGMIKEAFGKIPGARFFTHEERDDRGGHVLQDRHKINNGIPSLDELQLLDWVPNGGHIGFSPVSAPDGREAMKQFEMVRNRANEYNKDYAAQFIIGLREMHHVCLFIYDTAIPEAREEILQMTKVLVREAAEAGYGEYRTHNALMDDVMATFNWGDGALLKFHEKIKDALDPNGIIAPGKSGIWSQRFRGQNL", "modifications": "FAD covalently bound: bond between His390 and the C8M atom of the flavin ring", "notes": "eugenol oxidase (EUGO), flavoprotein oxidase of the VAO family, Rhodococcus jostii RHA1; source: E. coli culture"}}, "target": "the molecule itself", "experiment": "crystal structure; sitting-drop vapour diffusion at 20 °C; EUGO 15 mg/mL in 10 mM Tris-HCl pH 7.5 with 24 % PEG6000, 0.1 M Tris-HCl pH 8.0; crystals soaked with isoeugenol; two subunits in the asymmetric unit"}
{"protein": "B1", "values": [{"measurement": "stoichiometry N", "value": 2}]}
